Laboratory results as given in article PMC5028891 (Scientific Reports, 2016).

Target: T1, human claudin-4 (full-length), wild type (human, UniProt O14493 1-209)
T1 construct: also called claudin-4 wild type; WT
T1 sequence (looked up): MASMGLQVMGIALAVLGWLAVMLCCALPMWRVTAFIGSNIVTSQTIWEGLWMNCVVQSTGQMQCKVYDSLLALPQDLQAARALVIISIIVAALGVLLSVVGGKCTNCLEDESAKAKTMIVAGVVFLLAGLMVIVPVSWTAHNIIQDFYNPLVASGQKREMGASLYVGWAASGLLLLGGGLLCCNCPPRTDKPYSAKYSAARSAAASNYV
Test: pull-down
Settings: both partners purified

B1: glutathione-S-transferase-tagged C-CPE (residues 185′–319′), wild type (domain or fragment)
chain: RCVLTVPSTDIEKEILDLAAATERLNLTDALNSNPAGNLYDWRSSNSYPWTQKLNLHLTITATGQKYRILASKIVDFNIYSNNFNNLVKLEQSLGDGVKDHYVDISLDAGQYVLVMKANSSYSGNYPYSILFQKF
B1: binds.
